Source: patent publication US20230120167A1 (AFFILOGIC, published 2023)

B1: B11 (Sac7d variant binding to PD-L1, SEQ ID NO: 21) (designed binder)
chain: MVKVKFVIGGEEKEVDTSKIKTVRRIGKYVLFKYDDNGKTGMGLVSEKDAPKELLDMLARAEREKK
notes: also called NF2; NF-B11
B2: A-C2 (Sac7d variant binding to HSP110, SEQ ID NO: 27) (designed binder)
chain: MVKVKFMWRGEEKEVDTSKIWDVWRSGKTVYFHYDDNGKMGQGKVHEKDAPKELLDMLARAEREKK
notes: also called NF1; anti-HSP110 variant

Columns and labels:
mouse PD-L1 = target: T1, mouse PD-L1 (mouse, UniProt Q9EP73 19-238, limits assumed); experiment: Surface Plasmon Resonance
T1 construct: also called murine PDL1

human PD-L1 = target: T2, human PD-L1 (human, UniProt Q9NZQ7 19-238, limits assumed); experiment: Surface Plasmon Resonance
T2 construct: also called PD-1 ligand 1; CD274

HSP110 = target: T3, HSP110 (human, UniProt Q92598 1-858, limits assumed)
T3 construct: also called HSPH1; Hsp105
T3 sequence (Q92598 whole entry): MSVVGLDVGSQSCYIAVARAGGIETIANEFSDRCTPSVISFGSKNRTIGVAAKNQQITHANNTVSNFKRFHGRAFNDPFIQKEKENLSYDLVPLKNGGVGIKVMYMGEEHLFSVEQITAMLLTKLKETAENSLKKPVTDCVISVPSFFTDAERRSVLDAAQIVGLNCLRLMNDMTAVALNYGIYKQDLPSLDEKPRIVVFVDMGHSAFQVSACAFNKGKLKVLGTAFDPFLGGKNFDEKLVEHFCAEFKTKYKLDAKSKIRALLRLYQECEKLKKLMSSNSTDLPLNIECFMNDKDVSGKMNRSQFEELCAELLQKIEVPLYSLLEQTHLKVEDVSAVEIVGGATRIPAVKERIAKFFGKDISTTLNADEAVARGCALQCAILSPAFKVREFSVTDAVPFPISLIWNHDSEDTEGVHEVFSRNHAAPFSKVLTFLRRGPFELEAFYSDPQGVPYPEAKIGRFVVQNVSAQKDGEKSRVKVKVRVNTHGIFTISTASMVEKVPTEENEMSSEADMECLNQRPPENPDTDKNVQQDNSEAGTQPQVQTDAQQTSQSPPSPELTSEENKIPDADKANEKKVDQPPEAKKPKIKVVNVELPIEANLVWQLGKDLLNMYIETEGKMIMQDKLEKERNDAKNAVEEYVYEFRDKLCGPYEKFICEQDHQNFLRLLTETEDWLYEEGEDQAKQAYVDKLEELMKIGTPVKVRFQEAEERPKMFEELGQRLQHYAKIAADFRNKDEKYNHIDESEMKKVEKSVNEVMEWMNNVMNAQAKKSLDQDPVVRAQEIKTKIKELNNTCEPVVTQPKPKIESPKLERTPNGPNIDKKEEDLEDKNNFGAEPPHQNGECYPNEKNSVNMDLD

T2 sequence (Q9NZQ7 19-238 limits assumed): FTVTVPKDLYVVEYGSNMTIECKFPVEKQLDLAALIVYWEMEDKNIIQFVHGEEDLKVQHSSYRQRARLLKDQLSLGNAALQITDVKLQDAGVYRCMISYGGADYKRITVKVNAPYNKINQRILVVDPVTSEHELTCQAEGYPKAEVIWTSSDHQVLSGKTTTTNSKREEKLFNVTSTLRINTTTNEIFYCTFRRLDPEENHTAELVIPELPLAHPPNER
T1 sequence (Q9EP73 19-238 limits assumed): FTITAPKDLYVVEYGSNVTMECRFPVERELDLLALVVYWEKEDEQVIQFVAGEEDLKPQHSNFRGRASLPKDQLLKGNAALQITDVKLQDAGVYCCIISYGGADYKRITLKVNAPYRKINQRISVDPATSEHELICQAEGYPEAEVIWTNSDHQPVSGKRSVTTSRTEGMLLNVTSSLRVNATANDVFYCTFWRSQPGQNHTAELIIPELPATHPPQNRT

| Binder | Kd (mouse PD-L1) | Kd (human PD-L1) | Kd (HSP110) |
| --- | --- | --- | --- |
| B1 | ~3.2 nM | ~15 nM | – |
| B2 | – | – | < 1 nM |
